# B1: Avi-tagged, biotinylated GDP-mannose transporter Vrg4 from Candida albicans (natural protein)
# chain: MDSKHSTSSSSSGSLATRISNSGPISIAAYCLSSILMTVTNKYVLSGFSFNLNFFLLAVQSIVCIVTIGSLKSLNIITYRQFNKDEAKKWSPIAFLLVAMIYTSSKALQYLSIPVYTIFKNLTIILIAYGEVIWFGGKVTTMALSSFLLMVLSSVIAYYGDNAAVKSHDDAFALYLGYFWMLTNCFASAAFVLIMRKRIKLTNFKDFDTMYYNNLLSIPILLICSFIFEDWSSANVSLNFPADNRVTTITAMILSGASSVGISYCSAWCVRVTSSTTYSMVGALNKLPIALSGLIFFEAAVNFWSVSSIFVGFGAGLVYAVAKQKQQKEQSQQLPTTK
# modifications: biotin (Avi tag biotinylated using BirA ligase)
# Tests used:
# [1] = molecular target: NB2; test: ELISA
# [2] = molecular target: NB1; test: ELISA
binder,measurement,setting,value
B1,Kd,[1],125 nM
same,Kd,[2],109 nM

# Reference: paper PMC13342644 (2026)
